US20140072613A1 (published 2014)

Columns and labels:
Test in all cases: cell-based or functional assay
IRAK4(h) = biological target: T1, IRAK4(h) (human, UniProt Q9NWZ3 1-460, limits assumed)
T1 sequence (looked up): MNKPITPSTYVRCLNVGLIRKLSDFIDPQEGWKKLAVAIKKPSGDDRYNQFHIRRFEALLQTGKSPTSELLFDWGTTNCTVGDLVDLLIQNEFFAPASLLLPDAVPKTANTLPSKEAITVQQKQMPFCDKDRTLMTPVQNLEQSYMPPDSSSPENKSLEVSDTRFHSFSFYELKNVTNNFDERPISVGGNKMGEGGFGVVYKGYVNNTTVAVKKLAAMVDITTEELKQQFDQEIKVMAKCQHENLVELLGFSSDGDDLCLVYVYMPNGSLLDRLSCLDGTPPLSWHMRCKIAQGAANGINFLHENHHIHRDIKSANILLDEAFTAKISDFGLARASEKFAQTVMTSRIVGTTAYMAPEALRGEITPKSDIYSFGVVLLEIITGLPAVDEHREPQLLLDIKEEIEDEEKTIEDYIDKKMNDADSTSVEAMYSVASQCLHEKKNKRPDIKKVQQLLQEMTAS

Lyn(h) = Lyn(h) (human, UniProt P07948 1-512)
Sequence of Lyn(h) (P07948 whole entry): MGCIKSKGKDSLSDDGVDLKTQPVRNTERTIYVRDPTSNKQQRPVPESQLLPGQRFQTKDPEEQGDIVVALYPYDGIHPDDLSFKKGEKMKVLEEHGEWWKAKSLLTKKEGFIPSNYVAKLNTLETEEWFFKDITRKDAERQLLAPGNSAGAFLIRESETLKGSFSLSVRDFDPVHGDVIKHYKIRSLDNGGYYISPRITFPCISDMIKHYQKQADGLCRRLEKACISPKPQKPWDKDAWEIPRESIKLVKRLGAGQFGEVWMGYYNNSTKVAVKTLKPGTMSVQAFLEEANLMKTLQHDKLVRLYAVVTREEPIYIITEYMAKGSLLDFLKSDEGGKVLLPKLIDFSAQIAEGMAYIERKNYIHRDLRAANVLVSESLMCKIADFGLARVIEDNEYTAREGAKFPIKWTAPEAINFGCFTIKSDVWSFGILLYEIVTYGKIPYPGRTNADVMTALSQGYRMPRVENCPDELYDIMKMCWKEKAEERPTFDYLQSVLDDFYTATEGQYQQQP

ARK5(h) = biological target: T2, ARK5(h) (human, UniProt O60285 1-661, limits assumed)
T2 sequence (looked up): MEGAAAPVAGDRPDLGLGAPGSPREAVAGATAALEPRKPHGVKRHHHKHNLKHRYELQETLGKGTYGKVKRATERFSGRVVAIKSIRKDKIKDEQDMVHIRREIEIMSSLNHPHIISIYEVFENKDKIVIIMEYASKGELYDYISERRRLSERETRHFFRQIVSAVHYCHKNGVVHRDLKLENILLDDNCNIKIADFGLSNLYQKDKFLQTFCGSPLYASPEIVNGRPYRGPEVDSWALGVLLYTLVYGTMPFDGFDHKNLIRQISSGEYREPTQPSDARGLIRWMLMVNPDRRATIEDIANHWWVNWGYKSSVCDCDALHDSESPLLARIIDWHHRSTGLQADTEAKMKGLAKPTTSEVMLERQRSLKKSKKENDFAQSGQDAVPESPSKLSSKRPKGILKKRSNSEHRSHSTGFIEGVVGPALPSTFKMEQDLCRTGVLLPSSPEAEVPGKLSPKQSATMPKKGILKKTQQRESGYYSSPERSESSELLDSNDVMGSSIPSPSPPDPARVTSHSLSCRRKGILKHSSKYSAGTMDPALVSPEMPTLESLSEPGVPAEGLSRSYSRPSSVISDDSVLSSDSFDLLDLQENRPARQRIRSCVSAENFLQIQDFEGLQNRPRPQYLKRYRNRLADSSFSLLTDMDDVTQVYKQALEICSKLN

Aurora-A(h) = biological target: T3, Aurora-A(h) (human, UniProt O14965 1-403)
T3 sequence (looked up): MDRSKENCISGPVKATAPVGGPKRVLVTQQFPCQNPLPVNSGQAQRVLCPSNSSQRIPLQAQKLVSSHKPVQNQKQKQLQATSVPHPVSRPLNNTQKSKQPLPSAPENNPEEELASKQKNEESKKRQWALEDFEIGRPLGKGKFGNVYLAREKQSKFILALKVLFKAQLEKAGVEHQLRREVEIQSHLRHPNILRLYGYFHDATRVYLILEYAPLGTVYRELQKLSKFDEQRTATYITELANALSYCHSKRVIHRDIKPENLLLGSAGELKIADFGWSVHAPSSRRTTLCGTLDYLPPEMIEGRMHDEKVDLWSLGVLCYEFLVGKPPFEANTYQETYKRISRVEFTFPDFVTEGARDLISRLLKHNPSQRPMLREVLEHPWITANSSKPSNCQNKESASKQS

PKCµ(h) = biological target: T4, PKCµ(h) (human, UniProt Q15139 1-912)
T4 sequence (looked up): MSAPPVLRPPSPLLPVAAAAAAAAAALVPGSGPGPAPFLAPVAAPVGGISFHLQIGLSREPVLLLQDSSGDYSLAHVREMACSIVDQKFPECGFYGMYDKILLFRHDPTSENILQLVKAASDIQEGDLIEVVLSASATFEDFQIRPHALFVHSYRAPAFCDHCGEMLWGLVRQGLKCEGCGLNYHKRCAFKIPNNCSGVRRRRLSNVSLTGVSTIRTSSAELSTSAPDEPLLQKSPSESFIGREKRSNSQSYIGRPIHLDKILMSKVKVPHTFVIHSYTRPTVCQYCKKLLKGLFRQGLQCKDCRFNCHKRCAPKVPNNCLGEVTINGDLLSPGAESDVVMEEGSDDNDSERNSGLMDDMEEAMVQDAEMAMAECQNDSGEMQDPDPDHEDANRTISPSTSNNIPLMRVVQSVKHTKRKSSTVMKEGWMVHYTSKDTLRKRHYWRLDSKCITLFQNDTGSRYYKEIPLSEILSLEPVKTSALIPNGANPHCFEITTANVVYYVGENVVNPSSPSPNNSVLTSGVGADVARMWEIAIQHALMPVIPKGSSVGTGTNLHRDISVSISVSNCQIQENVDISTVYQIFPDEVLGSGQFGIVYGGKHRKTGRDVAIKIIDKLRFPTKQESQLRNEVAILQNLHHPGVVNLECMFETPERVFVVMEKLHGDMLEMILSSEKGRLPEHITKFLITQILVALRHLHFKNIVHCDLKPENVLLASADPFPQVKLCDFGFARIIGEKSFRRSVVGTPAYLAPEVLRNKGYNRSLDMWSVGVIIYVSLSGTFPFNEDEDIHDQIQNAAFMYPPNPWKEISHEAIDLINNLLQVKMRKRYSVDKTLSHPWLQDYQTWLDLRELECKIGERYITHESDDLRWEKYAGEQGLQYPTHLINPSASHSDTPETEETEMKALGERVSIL

CDK2/cyclinE(h) = CDK2/cyclinE(h) (human, UniProt P24941 1-298; P24864 1-410)
CK1γ3(h) = CK1γ3(h) (human, UniProt Q9Y6M4 1-447)
Sequence of CK1γ3(h) (Q9Y6M4 whole entry): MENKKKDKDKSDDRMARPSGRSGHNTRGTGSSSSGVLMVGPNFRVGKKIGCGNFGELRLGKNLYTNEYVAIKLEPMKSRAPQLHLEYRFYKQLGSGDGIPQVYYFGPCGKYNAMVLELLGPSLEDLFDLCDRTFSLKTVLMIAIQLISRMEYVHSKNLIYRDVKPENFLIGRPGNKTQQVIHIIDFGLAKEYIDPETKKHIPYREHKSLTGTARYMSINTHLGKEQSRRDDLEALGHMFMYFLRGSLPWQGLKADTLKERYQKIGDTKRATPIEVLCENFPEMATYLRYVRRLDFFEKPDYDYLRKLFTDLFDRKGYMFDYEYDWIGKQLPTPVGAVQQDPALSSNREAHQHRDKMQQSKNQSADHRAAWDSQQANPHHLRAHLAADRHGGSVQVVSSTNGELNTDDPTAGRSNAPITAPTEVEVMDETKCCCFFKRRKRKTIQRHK

| Binder | % activity, 100 µM (IRAK4(h)) [%] | % activity, 100 µM (Lyn(h)) [%] | % activity, 100 µM (ARK5(h)) [%] | % activity, 100 µM (Aurora-A(h)) [%] | % activity, 100 µM (PKCµ(h)) [%] | % activity, 100 µM (CDK2/cyclinE(h)) [%] | % activity, 100 µM (CK1γ3(h)) [%] |
| --- | --- | --- | --- | --- | --- | --- | --- |
| FAKLAARLYRKALARQLGVAA [MMI-0300] | 59 | 69 | 78 | 92 | 22 | 94 | 125 |
| KAFAKLAARLYRKALARQLGVAA [MMI-0400] | 59 | 3 | 69 | 119 | 14 | 83 | 115 |
